Data: patent US20180194841A1 (Regeneron, published 2018)
Positions count from the first letter of the chain named. Each block holds one binder with its values, some of them ahead of it.

Tests used:
[1] = target: T1, His-tagged human FcγRIIA (H131) (human, UniProt P12318 36-218, limits assumed); assay: SPR steady-state, 25 C, His-tagged FcγR captured, antibody injected
T1 construct: His-tagged, captured on anti-penta-histidine chip; also called hFcyRIIA (H131); FcRγIIA
T1 sequence (looked up): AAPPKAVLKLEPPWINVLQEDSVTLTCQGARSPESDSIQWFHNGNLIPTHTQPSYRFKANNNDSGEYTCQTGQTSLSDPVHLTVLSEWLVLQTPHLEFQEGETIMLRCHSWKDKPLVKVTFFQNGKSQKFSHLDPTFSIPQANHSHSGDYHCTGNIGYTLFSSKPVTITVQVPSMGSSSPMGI
Procedure: (§1) The anti-CD3×anti-CD20 bispecific antibodies having chimeric constant heavy chain regions Antibody 1 and Antibody 4 were analyzed using Surface Plasmon Resonance (SPR) (Biacore) technology to determine their kinetic binding parameters to human and cynomolgus Fcγ receptors.
(§2) Briefly, SPR experiments were performed at 25° C. on a Biacore T200 instrument employing a carboxymethyl dextran-coated (CM-5) chip. A mouse monoclonal anti-penta-histidine antibody (GE Healthcare) was immobilized on the surface of the CM-5 sensor chip using standard amine-coupling chemistry. […] Kinetic association (kₐ) and dissociation (kd) rate constants were determined by processing and fitting the data to a 1:1 binding model using Scrubber 2.0 curve fitting software. Binding dissociation equilibrium constants (KD) and dissociative half-lives (t_{1/2}) were calculated from the kinetic rate constants as: KD (M)=kd/kₐ; and t_{1/2} (min)=(ln 2/(60*kd).

[2] = target: T2, His-tagged human FcγRIIA (R131) (human, UniProt P12318 36-218, limits assumed); assay: as above
T2 construct: His-tagged, captured on anti-penta-histidine chip; also called human FcyRIIA (R131); FcRγIIA
T2 sequence (looked up): T1 sequence (looked up) with H132R
Procedure: as §1, §2

[3] = target: T3, His-tagged cynomolgus FcγRIIB (cynomolgus, UniProt A0A140HDP4 43-217); assay: as above
T3 construct: His-tagged, captured on anti-penta-histidine chip; also called cyno FcyRIIB
T3 sequence: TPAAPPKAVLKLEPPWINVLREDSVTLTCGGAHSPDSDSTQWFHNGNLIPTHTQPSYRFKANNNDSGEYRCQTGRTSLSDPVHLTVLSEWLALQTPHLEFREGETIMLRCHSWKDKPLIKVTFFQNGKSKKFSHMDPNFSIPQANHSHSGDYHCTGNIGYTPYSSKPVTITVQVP
Procedure: as §1, §2

[4] = target: T4, His-tagged cynomolgus FcγRIIIA (cynomolgus, UniProt Q8SPW2 17-208, limits assumed); assay: as above
T4 construct: His-tagged, captured on anti-penta-histidine chip; also called cyno FcyRIIIA
Procedure: as §1, §2

[5] = target: T5, His-tagged cynomolgus FcγRIIA (cynomolgus, UniProt A0A140HDN0 28-215); assay: as above
T5 construct: His-tagged, captured on anti-penta-histidine chip; also called cyno FcyRIIA
T5 sequence: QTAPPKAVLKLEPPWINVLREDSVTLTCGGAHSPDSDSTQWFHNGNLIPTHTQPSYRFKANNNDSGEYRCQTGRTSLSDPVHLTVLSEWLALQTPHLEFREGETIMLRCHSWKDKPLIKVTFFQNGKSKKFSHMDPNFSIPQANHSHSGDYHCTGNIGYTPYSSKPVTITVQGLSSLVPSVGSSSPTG
Procedure: as §1, §2

His-tagged human FcγRIIB = target: T6, His-tagged human FcγRIIB (human, UniProt P31994 46-217, limits assumed); assay: as above
T6 construct: His-tagged, captured on anti-penta-histidine chip; also called human FcyRIIB; FcRγIIB
T6 sequence (looked up): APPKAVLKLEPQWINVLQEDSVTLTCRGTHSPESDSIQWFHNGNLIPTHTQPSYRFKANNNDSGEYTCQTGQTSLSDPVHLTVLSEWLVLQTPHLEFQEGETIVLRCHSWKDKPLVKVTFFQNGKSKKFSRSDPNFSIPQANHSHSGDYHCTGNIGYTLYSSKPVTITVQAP
Procedure: as §1, §2

[6] = target: T7, human CD20 (on Raji cells, CD3-, CD20+ human B-cell line; on B16F10.9/CD20 cells) (human, UniProt P11836 1-297); assay: cell-based or functional assay
T7 sequence (looked up): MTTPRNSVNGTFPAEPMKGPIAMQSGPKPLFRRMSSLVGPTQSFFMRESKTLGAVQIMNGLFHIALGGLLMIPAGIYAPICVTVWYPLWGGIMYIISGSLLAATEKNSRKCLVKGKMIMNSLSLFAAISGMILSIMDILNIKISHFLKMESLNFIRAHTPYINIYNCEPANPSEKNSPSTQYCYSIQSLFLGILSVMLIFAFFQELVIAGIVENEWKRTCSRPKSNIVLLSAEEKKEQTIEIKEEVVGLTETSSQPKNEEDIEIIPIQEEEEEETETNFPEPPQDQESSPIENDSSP

[7] = target: T7, human CD20 (on Raji cells, CD3-, CD20+ …); assay: cell-based or functional assay; remark: listed apart in the source

T4 sequence (Q8SPW2 17-208 limits assumed): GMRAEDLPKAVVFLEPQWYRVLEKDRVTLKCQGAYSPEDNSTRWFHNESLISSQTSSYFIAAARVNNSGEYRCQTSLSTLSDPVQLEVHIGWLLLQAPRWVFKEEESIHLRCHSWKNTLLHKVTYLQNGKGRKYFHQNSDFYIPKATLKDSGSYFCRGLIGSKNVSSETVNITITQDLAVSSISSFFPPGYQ

- Kd [1]: 11.7 µM
- Kd [2]: 20.5 µM
- Kd [3]: 14.6 µM
- Kd [4]: 42.4 µM
- Kd [5]: 23.5 µM
- Kd (His-tagged human FcγRIIB): 233 µM
B1: Antibody 2 (CD3×CD20-chimericFc bispecific antibody) (bispecific antibody)
heavy 1: EVQLVESGGGLVQPGRSLRLSCVASGFTFNDYAMHWVRQAPGKGLEWVSVISWNSDSIGYADSVKGRFTISRDNAKNSLYLQMHSLRAEDTALYYCAKDNHYGSGSYYYYQYGMDVWGQGTTVTVSSASTKGPSVFPLAPSSKSTSGGTAALGCLVKDYFPEPVTVSWNSGALTSGVHTFPAVLQSSGLYSLSSVVTVPSSSLGTQTYICNVNHKPSNTKVDKKVEPKSCDKTHTCPPCPAPPVAGPSVFLFPPKPKDTLMISRTPEVTCVVVDVSQEDPEVQFNWYVDGVEVHNAKTKPREEQFNSTYRVVSVLTVLHQDWLNGKEYKCKVSNKGLPSSIEKTISKAKGQPREPQVYTLPPSRDELTKNQVSLTCLVKGFYPSDIAVEWESNGQPENNYKTTPPVLDSDGSFFLYSKLTVDKSRWQQGNVFSCSVMHEALHNHYTQKSLSLSPGK
heavy 2: EVQLVESGGGLVQPGRSLRLSCAASGFTFDDYTMHWVRQAPGKGLEWVSGISWNSGSIGYADSVKGRFTISRDNAKKSLYLQMNSLRAEDTALYYCAKDNSGYGHYYYGMDVWGQGTTVTVASASTKGPSVFPLAPSSKSTSGGTAALGCLVKDYFPEPVTVSWNSGALTSGVHTFPAVLQSSGLYSLSSVVTVPSSSLGTQTYICNVNHKPSNTKVDKKVEPKSCDKTHTCPPCPAPPVAGPSVFLFPPKPKDTLMISRTPEVTCVVVDVSQEDPEVQFNWYVDGVEVHNAKTKPREEQFNSTYRVVSVLTVLHQDWLNGKEYKCKVSNKGLPSSIEKTISKAKGQPREPQVYTLPPSRDELTKNQVSLTCLVKGFYPSDIAVEWESNGQPENNYKTTPPVLDSDGSFFLYSKLTVDKSRWQQGNVFSCSVMHEALHNRFTQKSLSLSPGK
light: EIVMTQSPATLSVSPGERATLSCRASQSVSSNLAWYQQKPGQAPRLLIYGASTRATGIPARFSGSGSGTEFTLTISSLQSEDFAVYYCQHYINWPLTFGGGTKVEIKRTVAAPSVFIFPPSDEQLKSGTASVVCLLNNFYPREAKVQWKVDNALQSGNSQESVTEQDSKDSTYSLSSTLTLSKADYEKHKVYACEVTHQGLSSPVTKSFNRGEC
notes: also called Ab 2

- Kd [1]: 12 µM
- Kd [2]: 19.3 µM
- Kd [3]: 13.9 µM
- Kd [4]: 66.3 µM
- Kd [5]: 23.1 µM
- Kd (His-tagged human FcγRIIB): 123 µM
B2: Antibody 1 (CD3×CD20-chimericFc bispecific antibody) (bispecific antibody)
heavy 1: EVQLVESGGGLVQPGRSLRLSCVASGFTFNDYAMHWVRQAPGKGLEWVSVISWNSDSIGYADSVKGRFTISRDNAKNSLYLQMHSLRAEDTALYYCAKDNHYGSGSYYYYQYGMDVWGQGTTVTVSSASTKGPSVFPLAPCSRSTSESTAALGCLVKDYFPEPVTVSWNSGALTSGVHTFPAVLQSSGLYSLSSVVTVPSSSLGTKTYTCNVDHKPSNTKVDKRVESKYGPPCPPCPAPPVAGPSVFLFPPKPKDTLMISRTPEVTCVVVDVSQEDPEVQFNWYVDGVEVHNAKTKPREEQFNSTYRVVSVLTVLHQDWLNGKEYKCKVSNKGLPSSIEKTISKAKGQPREPQVYTLPPSQEEMTKNQVSLTCLVKGFYPSDIAVEWESNGQPENNYKTTPPVLDSDGSFFLYSRLTVDKSRWQEGNVFSCSVMHEALHNHYTQKSLSLSLGK
heavy 2: EVQLVESGGGLVQPGRSLRLSCAASGFTFDDYTMHWVRQAPGKGLEWVSGISWNSGSIGYADSVKGRFTISRDNAKKSLYLQMNSLRAEDTALYYCAKDNSGYGHYYYGMDVWGQGTTVTVASASTKGPSVFPLAPCSRSTSESTAALGCLVKDYFPEPVTVSWNSGALTSGVHTFPAVLQSSGLYSLSSVVTVPSSSLGTKTYTCNVDHKPSNTKVDKRVESKYGPPCPPCPAPPVAGPSVFLFPPKPKDTLMISRTPEVTCVVVDVSQEDPEVQFNWYVDGVEVHNAKTKPREEQFNSTYRVVSVLTVLHQDWLNGKEYKCKVSNKGLPSSIEKTISKAKGQPREPQVYTLPPSQEEMTKNQVSLTCLVKGFYPSDIAVEWESNGQPENNYKTTPPVLDSDGSFFLYSRLTVDKSRWQEGNVFSCSVMHEALHNRFTQKSLSLSLGK
light: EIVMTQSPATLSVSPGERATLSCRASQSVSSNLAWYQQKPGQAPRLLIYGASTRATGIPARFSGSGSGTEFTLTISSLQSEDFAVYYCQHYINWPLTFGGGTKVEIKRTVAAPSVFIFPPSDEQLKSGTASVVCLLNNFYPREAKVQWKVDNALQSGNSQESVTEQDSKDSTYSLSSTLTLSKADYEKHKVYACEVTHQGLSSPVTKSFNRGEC
notes: also called Ab 1; Ab1
- % Survival B16F10.9/CD20 cells [M] (EC50, FACS, naive human PBMC effectors, 48 h) [6]: 1.95e-11 M
- Raji Cytotoxicity Activated Human T-cells [M] (EC50, calcein release) [7]: 2.5e-11 M
- Raji Cytotoxicity Activated Monkey T-cells [M] (EC50, calcein release) [7]: 9.1e-12 M
